Key:
[1] = biological target: Rhesus monkey CD40 extracellular domain (recombinant) (Rhesus monkey) (UniProt F6SNI1); assay: ELISA; CD40 extracellular domain coated 0.1 µg/well, antibody titrated from 10 µg/mL 1:3, anti-human IgG-HRP
[2] = biological target: human CD40 extracellular domain (recombinant) (human) (UniProt P25942); assay: as above
[3] = biological target: human CD40 extracellular domain (recombinant) (human) (UniProt P25942); assay: SPR, Biacore 8K; antibody on CM5 chip, hCD40 at various concentrations
human CD40 on cells [4] = biological target: T1, human CD40 on cells (human, UniProt P25942 21-277); assay: cell-based or functional assay
[5] = biological target: human CD40 extracellular domain (recombinant) (human) (UniProt P25942); assay: ELISA, plate coated with recombinant human CD40 extracellular domain, antibody in serial dilution, anti-human IgG-HRP, OD450
[6] = biological target: Rhesus monkey CD40 extracellular domain (recombinant) (Rhesus monkey) (UniProt F6SNI1); assay: ELISA, plate coated with recombinant rhesus monkey CD40 extracellular domain, antibody in serial dilution, anti-human IgG-HRP, OD450
[7] = biological target: T2, human CD40 extracellular domain (recombinant) (human, UniProt P25942 21-193); assay: affinity assay not described (data not shown)
T2 construct: Extracellular domain expressed in 293F cells; also called hCD40; CD40-His; not shown: tag (His, Avi-His, mouse Fc or human Fc)

[8] = biological target: T2, human CD40 extracellular domain …; assay: ELISA, plate coated with recombinant human CD40 extracellular domain, antibody (human IgG4 format) in serial dilution, anti-human IgG-HRP, OD450
Description: (§1) ELISA Binding Assay: The selected monoclonal full-length antibodies D1, D2, D3, D5, D6, or D7 were subjected to binding assays with CD40 extracellular domain of different species, respectively. The assay was designed to identify full-length antibodies that cross-reacted with CD40 of different species. Briefly, the human or Rhesus monkey CD40 prepared in example 1 was dissolved in PBS and coated on […] with 0.1 μg/well followed by incubation at 4° C. overnight. The 96-well plates were washed with TBST before adding antibodies, blocked with 5% milk for 1-2 h at 37° C., and washed again with TBST. Firstly, each antibody sample was diluted to 10 μg/mL, and then serially diluted at a 1:3 ratio. 100 μL of serially diluted antibodies were added to each well and incubated for 1 h at 37° C. After washing with TBST for 6 times, 100 μL of the secondary antibody (goat anti-human IgG-HRP (Sigma. A8667)) was added to each well and incubated for 1 h at 37° C. After washing with TBST for 3 times, TMB was added with 100 μL/well and incubated for 10-20 minutes at 37° C. 2M H₂SO₄ was used to stop the reaction and plates were read for the absorbance at 450 nm. The ELISA results were then analyzed and the binding curves were generated by PRISM.
(§2) The biding affinity of the optimized full length CD40 antibodies with human or rhesus monkey CD40 was evaluated by Elisa according to the corresponding protocol as described in Example 2, and ASKP1240 was used as control.

[9] = biological target: T3, Rhesus monkey CD40 extracellular domain (recombinant) (Rhesus monkey, UniProt F6SNI1 21-193); assay: ELISA, plate coated with recombinant rhesus monkey CD40 extracellular domain, antibody (human IgG4 format) in serial dilution, anti-human IgG-HRP, OD450
T3 construct: extracellular domain; also called RheCD40
Description: as §1, §2

human TNFR2 = biological target: T4, human TNFR2 (human, UniProt P20333 23-257); assay: ELISA; protein coated, antibody titrated, anti-human IgG-HRP
T4 construct: Bought protein coated on the ELISA plate; also called TNFR2 (Sino biological, 10417-h08h); INFR2
T4 sequence (looked up): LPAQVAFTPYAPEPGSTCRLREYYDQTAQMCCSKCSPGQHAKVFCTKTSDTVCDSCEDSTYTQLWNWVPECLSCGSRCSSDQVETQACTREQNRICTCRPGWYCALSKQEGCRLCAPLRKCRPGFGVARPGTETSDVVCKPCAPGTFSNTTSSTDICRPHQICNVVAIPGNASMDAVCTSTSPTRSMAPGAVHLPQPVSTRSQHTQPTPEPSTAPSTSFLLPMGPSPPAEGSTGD
Description: (§3) The cross-reactivities between anti-CD40 antibodies and the protein homologous with CD40 were detected. It was well known that there is high sequence homology among TNFR superfamily members. When compared with CD40 sequence. TNFRSF11A (38.95% homology) and INFR2 (37.20% homology) are with the highest homology. The cross-reactions between the two proteins and anti-CD40 antibody were detected by ELISA. respectively. Briefly, human TNFRSF11A (Sino biological, 16078-h08h), human TNFR2 (Sino biological, 10417-h08h) or the human CD40 extracellular domain protein prepared in example 1 was coated on ELISA plate and incubated at 4° C. overnight, respectively. After serial dilution, the optimized full-length anti-CD40 antibodies were added into 96 well plates and incubated respectively. After washing with TBST solution, the anti-human IgG-HRP antibody was added and incubated at RT. After washing with PBST, TMB was added into each well for development. Plates were read for the absorbance at 450 nm.

human TNFRSF11A = biological target: T5, human TNFRSF11A (human, UniProt Q9Y6Q6 30-212); assay: as above
T5 construct: Bought protein coated on the ELISA plate; also called TNFRSF11A (Sino biological, 16078-h08h)
T5 sequence (looked up): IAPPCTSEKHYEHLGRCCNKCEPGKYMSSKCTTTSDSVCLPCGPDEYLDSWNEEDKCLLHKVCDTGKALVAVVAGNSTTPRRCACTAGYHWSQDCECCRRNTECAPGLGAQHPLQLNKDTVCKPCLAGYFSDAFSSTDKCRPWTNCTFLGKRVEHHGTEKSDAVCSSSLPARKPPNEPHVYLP
Description: as §3

human CD40 on cells [10] = biological target: T1, human CD40 on cells; assay: cell-based or functional assay; remark: listed apart in the source
[11] = biological target: T2, human CD40 extracellular domain …; assay: SPR, Biacore 8K; antibody on CM5 chip, hCD40 at various concentrations
Description: The binding affinity of the optimized anti-CD40 antibodies with human […] was characterized using Biacore 8K (GE). Anti-CD4 (antibodies were stabilized on sensor chip CM5 The affinities for hCD40 at various concentrations were measured. Using the SPR technology, the association and dissociation rates were measured, and binding affinity was determined.

Chain of human CD40 extracellular domain (recombinant) (human) (P25942 21-193): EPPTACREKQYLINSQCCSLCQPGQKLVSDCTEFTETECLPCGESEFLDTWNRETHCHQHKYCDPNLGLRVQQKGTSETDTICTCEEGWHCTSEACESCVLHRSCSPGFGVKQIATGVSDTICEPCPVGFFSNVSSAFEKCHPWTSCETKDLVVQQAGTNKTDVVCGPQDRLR
T2 sequence (P25942 21-193): as above
T1 sequence (P25942 21-277 limits assumed): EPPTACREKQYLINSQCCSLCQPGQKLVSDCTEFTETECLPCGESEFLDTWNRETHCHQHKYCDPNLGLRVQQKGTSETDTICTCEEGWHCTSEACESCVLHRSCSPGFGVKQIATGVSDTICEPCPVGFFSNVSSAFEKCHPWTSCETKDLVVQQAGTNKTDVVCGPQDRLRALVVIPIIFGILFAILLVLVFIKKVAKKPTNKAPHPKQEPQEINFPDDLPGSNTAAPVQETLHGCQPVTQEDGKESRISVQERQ
Chain of Rhesus monkey CD40 extracellular domain (recombinant) (Rhesus monkey) (F6SNI1 entry or part of it): as the sequence (P25942 21-193) above, with G43S, H56R, W89L, T92M, A95S, L101P, S106L, H142R, L172Q counted along it

B1: ASKP1240 (antibody, INN chains, looked up, V domains shown)
VH: QLQLQESGPGLLKPSETLSLTCTVSGGSISSPGYYGGWIRQPPGKGLEWIGSIYKSGSTYHNPSLKSRVTISVDTSKNQFSLKLSSVTAADTAVYYCTRPVVRYFGWFDPWGQGTLVTVSS
VL: AIQLTQSPSSLSASVGDRVTITCRASQGISSALAWYQQKPGKAPKLLIYDASNLESGVPSRFSGSGSGTDFTLTISSLQPEDFATYYCQQFNSYPTFGQGTKVEIK
modifications: IgG4
**Q.** Which EC50 [1] does the source give for B1 here?
**A.** 0.181 µg/mL

**Q.** What about the EC50 [2] of the same binder?
**A.** 0.211 µg/mL

**Q.** What about the Kd [3] of the same binder?
**A.** 2.07 nM

**Q.** And the koff [3]?
**A.** 0.000617 s⁻¹

**Q.** What about the kon [3] of the same binder?
**A.** 298000 M⁻¹ s⁻¹

**Q.** What about the IC50, HEK-Blue CD40L NF-κB activation assay (SEAP) (human CD40 on cells [4]) of the same binder?
**A.** 0.0134 µg/mL

**Q.** What about the IC50, HEK-Blue CD40L NF-κB activation assay (SEAP), Fc-3*G4S-CD40L stimulus (human CD40 on cells [4]) of the same binder?
**A.** 0.0111 µg/mL

**Q.** What about the EC50 (read off the curve) [5] of the same binder?
**A.** 0.1 µg/mL

**Q.** And the EC50 (read off the curve) [6]?
**A.** 0.1 µg/mL

B2: D11 (antibody, IgG4, V domains shown)
VH: QVQLVQSGAEVKKPGASVKVSCKASVYSFTGYTVNWVRQAPGQRLEWMGLINPYNGGTTYNQKFKGRVTLTIDKSASTAYMELSSLRSEDTAVYYCASSYYSNPYAMDYWGQGTLVTVSS
VL: EIVMTQSPATLSVSPGERATLSCKASQNVHTAVAWYQQKPGQAPRLLIYLASDRRTGIPARFSGSGSGTEFTLTISSLQSEDFAVYYCLQHWNYPLTFGQGTKVEIK
notes: Humanized form of D1; recombined with human IgG constant regions (preferably IgG4 heavy chain and kappa light chain); also called humanized anti-CD40 antibody D11
**Q.** Does B2 bind [7]?
**A.** binds

B3: D42 (antibody, V domains shown)
VH: QVQLVQSGAEVKKPGASVKVSCKASVYSFTGYTVNWVRQAPGQRLEWMGLIVPYNGGTTYNQKFKGRVTLTIDKSASTAYMELSSLRSEDTAVYYCASSRYSNPYAMDYWGQGTLVTVSS
VL: EIVMTQSPATLSVSPGERATLSCKASQNVHTRVAWYQQKPGQAPRLLIYLASDRRTGIPARFSGSGSGTEFTLTISSLQSEDFAVYYCLQHWNYPLTFGQGTKVEIK
notes: also called optimized anti-CD40 antibody D42
**Q.** What does the source list for B3?
**A.** EC50 (read off the curve) [8]: ~0.2 µg/mL; EC50 (read off the curve) [9]: ~0.1 µg/mL; binding result (human TNFR2): no binding (tested: 10 µg/mL); binding result (human TNFRSF11A): no binding (tested: 10 µg/mL); IC50, HEK-Blue CD40L NF-κB activation assay (SEAP), antibody as human IgG4 (human CD40 on cells [10]): 0.00962 µg/mL; Kd [11]: 1.26 nM; koff [11]: 0.000277 s⁻¹; kon [11]: 221000 M⁻¹ s⁻¹

B4: D47 (antibody, human IgG4, V domains shown)
VH: QVQLVQSGAEVKKPGASVKVSCKASVYSFTGYTVNWVRQAPGQRLEWMGLINPYTGGTTYNQKFKGRVTLTIDKSASTAYMELSSLRSEDTAVYYCASSYYSNPYASDYWGQGTLVTVSS
VL: EIVMTQSPATLSVSPGERATLSCKASQNVHTRVAWYQQKPGQAPRLLIYLASDRRTGIPARFSGSGSGTEFTLTISSLQSEDFAVYYCLQHWTYPLTFGQGTKVEIK
notes: also called optimized anti-CD40 antibody D47
**Q.** How did the “EC50 (read off the curve)” value [8] turn out when B4 was run?
**A.** ~0.2 µg/mL

**Q.** And the “EC50 (read off the curve)” value [9]?
**A.** ~0.1 µg/mL

**Q.** Does B4 bind (human TNFR2)?
**A.** no binding (tested: 10 µg/mL)

**Q.** Does B4 bind (human TNFRSF11A)?
**A.** no binding (tested: 10 µg/mL)

**Q.** What about the “IC50, HEK-Blue CD40L NF-κB activation assay (SEAP), antibody as human IgG4” value (human CD40 on cells [10]) of the same binder?
**A.** 0.0114 µg/mL

**Q.** And the Kd [11]?
**A.** 1.59 nM

**Q.** What about the koff [11] of the same binder?
**A.** 0.000303 s⁻¹

**Q.** And the kon [11]?
**A.** 191000 M⁻¹ s⁻¹

B5: D33 (antibody, human IgG4, V domains shown)
VH: QVQLVQSGAEVKKPGASVKVSCKASVYSFTGYTVNWVRQAPGQRLEWMGLINPLNGGTTYNQKFKGRVTLTIDKSASTAYMELSSLRSEDTAVYYCASSYYSTPYAMDYWGQGTLVTVSS
VL: EIVMTQSPATLSVSPGERATLSCKASQNVHTRVAWYQQKPGQAPRLLIYLASDRRTGIPARFSGSGSGTEFTLTISSLQSEDFAVYYCLQHWNYPLTFGQGTKVEIK
notes: also called optimized anti-CD40 antibody D33
**Q.** What does the source list for B5?
**A.** EC50 (read off the curve) [8]: ~0.2 µg/mL; EC50 (read off the curve) [9]: ~0.1 µg/mL; binding result (human TNFR2): no binding (tested: 10 µg/mL); binding result (human TNFRSF11A): no binding (tested: 10 µg/mL); IC50, HEK-Blue CD40L NF-κB activation assay (SEAP), antibody as human IgG4 (human CD40 on cells [10]): 0.0122 µg/mL; Kd [11]: 1.63 nM; koff [11]: 0.000494 s⁻¹; kon [11]: 304000 M⁻¹ s⁻¹
